From patent US20140336202

Biological target: recombinant PP5 (UniProt P53041)
Sequence (P53041 whole entry): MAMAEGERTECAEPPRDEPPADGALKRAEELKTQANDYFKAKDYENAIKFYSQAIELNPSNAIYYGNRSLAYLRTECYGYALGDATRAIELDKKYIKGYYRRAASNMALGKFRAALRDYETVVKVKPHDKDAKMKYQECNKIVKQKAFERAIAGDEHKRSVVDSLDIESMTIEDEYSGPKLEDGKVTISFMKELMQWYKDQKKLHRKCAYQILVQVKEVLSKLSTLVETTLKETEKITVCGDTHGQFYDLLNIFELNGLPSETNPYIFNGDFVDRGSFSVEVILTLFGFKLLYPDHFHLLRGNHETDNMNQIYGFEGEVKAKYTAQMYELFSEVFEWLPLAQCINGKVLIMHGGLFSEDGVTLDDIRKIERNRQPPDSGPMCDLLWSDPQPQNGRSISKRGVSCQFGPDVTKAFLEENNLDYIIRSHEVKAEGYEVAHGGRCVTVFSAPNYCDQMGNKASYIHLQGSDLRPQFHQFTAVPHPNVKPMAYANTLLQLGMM

Substance | in vitro ubiquitylation of PP5 (immunoblot for PP5)
recombinant Huwe1 C4341S mutant (Huwe1 C/S) | wild type recombinant Huwe1 protein, but not Huwe1(C/S), ubiquitylated recombinant PP5 in vitro
recombinant Huwe1 wild type | in the presence of both E1 and E2, wild type recombinant Huwe1 protein, but not Huwe1(C/S), ubiquitylated recombinant PP5 in vitro
